Source: the nanobody polyreactivity screen of Harvey et al. (2022)

experiment: yeast display, Sf9 membrane polyspecificity reagent, FACS + sequencing; frameworks hold sequencing errors
Procedure, shortened: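 In a synthetic yeast display library (Saccharomyces cerevisiae BJ5465), nanobody expression was induced with galactose for 36–48 hours. FACS gates were set low and high (top ~1%) using anti-HA fluorescence for expression and streptavidin fluorescence for binding of the Sf9 membrane reagent. Each polyreactivity label is drawn from the gate of origin.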

Sequence | polyreactivity (PSR sort gate)
QVLLQESGGGLVQEGGSLRLTCAASGNIFSAGGMAWYRQATVNERELVAGIGTGTSTNYADSVKGRFTISRDNAKNTVYLQMNSLKPEDTAVYYCAAAYYSGLSHWYWGQCTQVTVSS | low polyreactivity
QVLLQESGGGLVQPGGSLLLSCAASGNIFSAGGMGWYRQAPVNEPELVAGIGTGTSTNYADSVKGRFTISRDNAKNTVFLQMNSLNPEDTAVYYCAAAYYSGLSHWYWGQGTQVTVSS | low polyreactivity
QVLLVDSGGGLVQAGGSLRLSCAASGRIFGPYTMARYIQAPGPERELVAAISWSGGSTYYADSVKGRFTISRDNAKNNVFLQMNSLKPEDSAVYYCNAYHPFPQYEGGSWGQGTQVTVSS | low polyreactivity
QVLLVDSGGGLVQAGGSLSLICAASGFTFYYNAMGWYRQAPGKERELVAGISGRGGTTYYADSVNGRFTISRDNAKNTVYLQMNSLKPEDTAVYYCAARKVRARSKFEYWGQGTQVTVSS | high polyreactivity
QVLLVEAGGGLVHAGGSLRLSCAASGLIFGYYAMRWYRQAPWKERELVAAISFSGGSSYYADSVKGRFTISRDNAKNTDSLQMNSLKPEDTAVYYCAADLDGSSEYEYWGQGTQVNVSS | low polyreactivity
QVLLVESGGCLVQEGGSLRFSCAASGFIFAYYAMGWYRPAPGKERELVAAITSDGATYYADSVKGRFTISRDNAKNTVYLQMNSLKPEATAVYYCNTYWLLRPGYIYWGQGTQVTVSS | high polyreactivity
QVLLVESGGGLVQAGGILRLSCAASGRILPFNAMGWYRQAPGKAREFVAANSRVSGRTYYADSVKGRFTISRDNAKNTVYLQMNSLKPEDTAVYYCATDTYSYGYEYWGQGTHVTVSS | high polyreactivity
QVLLVESGGGLVQAGGSLRLSCAASGFIFVDYAMGWYRQAHGKERELVAAITSSGDRTYYADSVKGRFTISRDNAKNTVYLQMNSLKPEDTAVYYCNADWSTACYTSYDYWGQGTQVTVSS | low polyreactivity
QVLLVESGGGLVQAGGSLRLSCAASGFTFNRYDMVWYRQAPGTEREKVARITRGGSTKYADSVKGRFTISRDNAKNTVYLQMKSLKPEDTPVSYCAAGPVKRYVVQGNYWGQGTQVTVSS | high polyreactivity
QVLLVESGGGLVQAGGSLRLSCAASGGTFLFYGMGWYRQAPGKERELVAVITWSGGSTYYADSVKGRFTISRDNAKNTVNLQMNSLKPEDTAVYYCNAANTGSPDYQSIGYNFNYWGQGTQVTVSS | low polyreactivity
QVLLVESGGGLVQAGGSLRLSCAASGIILGDNARGWYRQAPGKDRVLDATISTSGVSTYYADSVKGRFTISRDNAKKTVNFQMNSLKPQDTAVYYCAASNEVPWRFPDDSWGQGTQVTVSS | low polyreactivity
QVLLVESGGGLVQAGGSLRLSCAASGRTFARNTMGWYRQAPGKERELVAGITSTGSTNYADSVKGRFTISRDNAKNTVYLQMNSLKPEDTAVYYCNARRYRPGSQYGYDYWGQGTQVTVSS | high polyreactivity
QVLLVESGGGLVQAGGSLRLSCAASGRTLPPNAMGWYRQAPGKERELGAGITWSGGSTYSADSVKGRFTISRDNAKNTVYLQMNSLKPEDTAVYYCAASRSFPGYGLYYYWGQGTQVTVSS | low polyreactivity
QVLLVESGGGLVQAGGSLRLSCAASGSTFPGNAMGWYRQAPGKERELVARINDGADTNYADSVKGRFTISRDNAKNTVNLQMNSLKPEDTAVYYCATPYYDGRTHFDSWGQGTQVTVSS | low polyreactivity
QVLLVESGGRLVQAGGSLRLSSAASGRTLNINAMGWYRQAPGKERELVAVISFNGGGTYYADSVKGRFTISRDNGKNTVYLQMNSLKPEDTAVYYCNAVRDRYASDYWGQGTQVTVTS | low polyreactivity
QVMLVESGGGLVQAGGSLRLSCAASGSIFKSNAMGWYRQAPGKERELVAAITRSGGSTYYADSVKGRFTISRDNAKYTVYLQMNSLKPEDTAVYYCARRPGKGNNYWGKGTQVTVSS | high polyreactivity
QVNHVESGGGLVQAGGSLRLTCAASGRTFSRYVMGWYRQSPGKERELVAAISRTGGRTYYADSVKGRFTISRDNAKNSVYLQMNSLNPEDTAVYYCYAGTVLISTYDYWGQGTQVTLSS | high polyreactivity
QVNLEESGGGLVQAGVILRLSSAASGSIFYRNAMGWYRQAPGKEREWVAAISSGGSTYYADSVKGRFTISRDNAKNTVYLQMNSLKPEETAVYYCAKDAHIWGYRDYEYWGLGTQVTVSS | high polyreactivity
QVNLVDSGGGLVQAGGSLRLSCAASGSTFRNNAMGWSRQAPGKERELVAVITGDGGSTYYADSVKGRFTISRDNAKNTVYLQMNSLKPEDTAVYYCNARSIRYYRFRLRFGYWGQGTQVTVSS | low polyreactivity
QVNLVESGVGLVQAGVSLRLSCAASGRIFQYYAMGWYRQATGKERELVAAISRSGGSTYYADSVKGRFTISRDNANNTVYLQMNSLKPEDTAVYYCAKVYRGFSYGYCGQGTQVTVSS | high polyreactivity
QVPLVASGGGLVQAGGSLRLSCSASGRTFQYNAMGCYRQAPGKERELVAAITKRGTSTYFADSVKGRFTISRDNAKNTVYLQMNRLIPEDTAVYYCAALEGSLTGWQTYDYWGQGTQVTVSS | low polyreactivity
QVPLVDSGGGLVQAGGSLRLSCAASGRSYGIYAMGWYIQAPGKERELVASITGRGGSTYYADSVKGRFTISRDNAKNTFYLQKNSLKPDDTAVYFCAARDRPYVHYSGLDYWGQGTQVTVSS | high polyreactivity

Sequence | polyreactivity (PSR sort gate)
QVPLVESGGGLVHAGGSLRLSCAASGIILHDNTMGWYRQAPGKERELVAAITSDGSTNYADSVKGRFTISSDNAKNTVYLQMNSLKPEDTAVYYCNTDDGPYTEFDYWRQGTQVTVSS | low polyreactivity
QVPLVESGGGLVQAGGSLRLICAASGRIFYRYAMVWYRQAPGKERELVATISRSGGSTNYADSVKGRFTISRDNAKNTVYLQMNSLKPEDTAVYYCNARYLSTRSGDYWGQGTQVTVSS | high polyreactivity
QVPLVESGGGLVQAGGSLRLSCAACGFIFGSYSMGWYRQAPGKERELVAAITSDGNTDYADSVKGRFTISRDNAKNTVYLQMNSLKPEDTAVYYCATDWVDHYDYWGQGTQVTVSS | low polyreactivity
QVPLVESGGGLVQAGGSLRLSCAASGRTFVGYAMGWSSQAPGKDRELVARITGRSGSTYYADSVKGRFTISRDNAKNTVYLQMNSLKTEDTAVYDCAKRITYYYPGYDDWGQGTQVTVAS | low polyreactivity
QVPLVESGGGLVQAGGSLRLSCAASGRTFWNYAMGWYRPAPGKERELVAVSRFSDGSTYYADSVKGRFTISRDNAKNTVYLQMNSLKPEDTAVDDGAAKGPRRWGSGFDYWGQGTQVTVSS | low polyreactivity
QVPLVESGGGLVQAGGSLRLSCAASGSTFYTYAMGWYRQAPGKERELVATISRGGGRTYYADSVKGRFTISRDNAKYTVYLQMISLKPEDTAVYYCAARLYSSSYNSEQYYYWGQGTQVTVSS | high polyreactivity
QVPLVESGVGLVQAGGSLRLSCAASGSTFTIYAMGWYREAPGKERELVAAITWNGGSTYYADSVKGRFTISRDNAKKTVYLQMNSLKPEDTAVYYCADDYYWYWDLYDYWGQGTQVTVSS | high polyreactivity
QVPLVKSGAGFVQAGGILRLSCAASGRIFPFYVNGLARQAAGQERELVATINWSGGSTYYADSVKGRFTISRDNAKNTVYLQMNSLKPADTAVYYCAAAGIGGGGWGQGTQVTVSS | low polyreactivity
QVQFVESGGGLVQAGGSLRLSCAASGSTFQGNAMGWYRQAPGKERELVAAISRSGGRTYYADSVKGRFTISRDNAKNTVYLQMNSLKPEDTAVYYCAADAYTGDIPYWWPWNNEYDYWGQGTQVTVSS | low polyreactivity
QVQHEDSGGCLVQAAGSLSVSCAATGSTFDTYEMGRSRKATGKEMELVAAISSGGGTKYADSVKGRFKISRDNAKNTVYLQMNSLKPEDTAVYYCAADKAVGDSTRYYYWGQGTQVTVSS | low polyreactivity
QVQHEESGGGLVQAGGSLRLICAASGRTFADNAMGWYRQAPGTERELVPSISSVTSTNYADSVKGRFTISRDNAKYTVYFQMNSLKPEDPAVYDCNAYGPIWYTAVLGFGRYYGWTDYWGQGTQVTVSS | low polyreactivity
QVQHEESGGGLVQAGGSLRLSCAASGFTFRGYAMGWYRQAPGKERELVAAISRSGGGTYYADSVKGRFTISRDNAKNTVYLQMNSLKPEDTAVYYCAAVYRRTRSWKFDYWGQGTQVTVSS | high polyreactivity
QVQHEESGGGLVQAGGSLRLSCAASGRIFGAYPMGWSRQATGKERELVAAITSRGGNTYYADSVKGRFTISRDNAKNTVYLQMNSLKPEDTAVYYCAARHDKRRQYYVGQSAFDYWGQGTQVTVSS | low polyreactivity
QVQHEESGGGLVQAGGSLRLSCAASGRTFLQYAMGWYRQAPGKERELVDAITTSGGDTYYSDSVKGRFTISRDNAKNTVYLQMKSLKPEDTAVFYCNADFRVYIPHVPYLVDFYYWGQGTQVTVSS | low polyreactivity
QVQHEESGGGLVQAGGSLRLSCAASGSIFYDNGMGWYRPAPGKERELVAAISRGGTTNYADSVKGRFTISRDKAKNTVYFQMNSLKPEDTAVYYCNADTRFTYWGSWYDYWGQGTQVTVSS | low polyreactivity
QVQHEESGGGLVQAGGSLRLSCAASGSIIAYNAMGWYRQAPGKERELVAAITDSGGSTFDADSVKGRFTFSRDYGMITVYLQMNSLIPEDTAVYYCATSGDRLVWGQGTQVTVSS | low polyreactivity
QVQHEESGGGLVQAGGSLRLSCASSGLIFKFSAMGWYRQAPGKERELVAAITSRGGSTYYADSVKGRFTISRDNAKNTVYFQMNSLKPEDTEVYYCAADVRTQHYNAQYDYWGQGTQVTVSA | high polyreactivity
QVQHEETGGGLVQAGGSLRLSCAASGSTYRKNSMGWYRPAPGKERAFVAAISRSGGSTYYADSVKGRFTISRDNAKNTVYLQMNSLKPEDTAVYYCAASYYQHQYSYELGDYWGQGTQVTVSS | low polyreactivity
QVQHEKSRGALVQAGGSLRLSCAASGSTVEKYTMGWYREAPGKVRELVAAISKSGGSTYYADSVKGRFTISRDNAMNTVYLQMNSLNPEDTAVDYCAALQYPRAGFDYWGQGTQVTVSS | high polyreactivity
QVQHGESGGGLVQAGGSLRLTCAASGSIFKYNAMGWYRQAPGKERELDAAISLSGASRSYADSVKGRFTISRVNAKNTVYLQMNSLKPEDTAVYYCNAYYWYYSTRKYYYWGQGTQETVSS | high polyreactivity
QVQHLESGGGLVQAGGSLRLSCAASGFTFGYYAMGWYRQAPGKEREFVATISYGTGSTYYADSVKGRFTISRDNAKNTVYLQMNSLKPEDTAVYYCNADTWPGEYNGYFSGAYDYWGQGTQVTVSS | high polyreactivity
